Data from publication PMC4538381, “Activation of Relaxin Family Receptor 1 from Different Mammalian Species by Relaxin Peptide and Small-Molecule Agonist ML290” (Frontiers in Endocrinology, 2015).
“Also recorded” adds a separate entry of the source.

Assays:
[1] = system: hRXFP1; assay: Direct HTRF cAMP assay, hRXFP1; format: cell-based, human; settings: conditioned media from SQ10-transfected HEK293T cells, % of 10 μM Forskolin
Method: (§1) HEK293T cell transient transfections were performed using Lipofectamine 2000 transfection reagent (Life Technologies, Grand Island, NY, USA) according to the manufacturer’s instructions. Cells transiently expressing the RXFP1 receptors were used within 48 h of transfection. Each construct was tested at least three times. For cell-conditioned media stimulation, HEK293T cells were transfected with the rabbit RLN construct (SQ10) or an empty pCR3.1 vector, and cells were cultured for 24 h. The media was used to stimulate HEK293T cells transfected with the RXFP1 receptors.
(§2) Direct measurement of cAMP production was performed using the HTRF cAMP HiRange kit (CisBio, Bedford, MA, USA). HEK293T cells transiently transfected with different RXFP1 receptors were stimulated with various concentrations of RLN peptides or ML290 for 60 min at 37°C, 5% CO2, after which, two HTRF detection reagents (diluted according to assay kit directions in HTRF lysis buffer) were added. The plates were incubated for 60 min at room temperature, and the signal was read on a FLUOstar Omega (BMG Labtech, Cary, NC, USA) plate reader. cAMP levels were calculated according to the manufacturer’s instructions against a standard curve. Statistical processing of the data was performed using GraphPad Prism software.

[2] = system: R1-RXFP1 and R2-RXFP1; assay: Direct HTRF cAMP assay, rabbit R1-RXFP1 and R2-RXFP1; format: cell-based, European rabbit (Oryctolagus cuniculus); settings: HTRF
Method: The human, mouse, macaque, and pig RXFP1 cDNA constructs in baculovirus BacMam mammalian expression vector (Invitrogen, Carlsbad, CA, USA) were synthesized at the Eukaryotic Expression Group-Protein Expression laboratory (NCI, Frederick, MD, USA). The PCR primers for RT-PCR were designed to cover the full-length sequence of the open reading frame (ORF). PCR amplifications were performed with PfuUltra High-Fidelity DNA polymerase (Agilent Technologies, Santa Clara, CA, USA). Guinea pig RXFP1 (G-RXFP1) was amplified from guinea pig ovarian cDNA (Zyagen, San Diego, CA, USA). Rabbit RXFP1 (R1-RXFP1 and R2-RXFP1) cDNAs were amplified from rabbit uterus cDNA (Zyagen). All cloning was performed using the In-Fusion® HD Cloning Kit (Clontech Laboratories, Mountain View, CA, USA). Rabbit and guinea pig RXFP1s were cloned into pCR3.1 mammalian expression vector (Invitrogen). In order to study RXFP1 surface expression, rabbit cDNAs were cloned into pcDNA3.1™/Zeo+ mammalian expression vector (Invitrogen), which contained an N-terminal FLAG-tag and a bovine prolactin signal sequence (3). […] To make chimeric clones, the human, guinea pig, and rabbit plasmid were used as templates to produce PCR amplicons, which were then used for overlapping PCR and subsequent cloning with the In-Fusion kit. The chimeric guinea pig/human GH-RXFP1 construct contains guinea pig RXFP1 cDNA (G-RXFP1, 1–1499 bp) encoding the ectodomain, TM1, TM2, and part of TM3 (amino acids 1–499 of G-RXFP1), and human RXFP1 (hRXFP1, 1509–2274 bp) encoding TM3 to the C-terminal tail of the receptor (amino acids 503–757 of hRXFP1) (Figure 1A). The recombinant chimeric human–rabbit HR-RXFP1 was made with the 5′-part of the hRXFP1 sequence (1–972 bp, LDLa-LRR9, 1–324 aa), with the remainder being the rabbit RXFP1 sequence (973–2277 bp, LRR9-C-terminal tail, 325–759 aa) (Figure 1A). The recombinant chimeric rabbit–human R1H-RXFP1 or R2H-RXFP1 contains the N-terminal rabbit RXFP1 sequence (1–972 bp for R1-RXFP1 or 975 bp for R2-RXFP1), with the remaining sequence being hRXFP1 (973–2274) (Figure 1A). R1- and R2-RXFP1 denote two variants of rabbit RXFP1 cDNA. All numbers correspond to the full-length cDNAs with the first nucleotide of the ORF.
as §1, §2

[3] = system: G-RXFP1; assay: Direct HTRF cAMP assay, guinea pig G-RXFP1; format: cell-based, guinea pig (Cavia porcellus); settings: conditioned media from SQ10-transfected HEK293T cells, % of 10 μM Forskolin
Method: The human, mouse, macaque, and pig RXFP1 cDNA constructs in baculovirus BacMam mammalian expression vector (Invitrogen, Carlsbad, CA, USA) were synthesized at the Eukaryotic Expression Group-Protein Expression laboratory (NCI, Frederick, MD, USA). The PCR primers for RT-PCR were designed to cover the full-length sequence of the open reading frame (ORF). PCR amplifications were performed with PfuUltra High-Fidelity DNA polymerase (Agilent Technologies, Santa Clara, CA, USA). Guinea pig RXFP1 (G-RXFP1) was amplified from guinea pig ovarian cDNA (Zyagen, San Diego, CA, USA). Rabbit RXFP1 (R1-RXFP1 and R2-RXFP1) cDNAs were amplified from rabbit uterus cDNA (Zyagen). All cloning was performed using the In-Fusion® HD Cloning Kit (Clontech Laboratories, Mountain View, CA, USA). Rabbit and guinea pig RXFP1s were cloned into pCR3.1 mammalian expression vector (Invitrogen). […]
Direct measurement of cAMP production was performed using the HTRF cAMP HiRange kit (CisBio, Bedford, MA, USA). […] The plates were incubated for 60 min at room temperature, and the signal was read on a FLUOstar Omega (BMG Labtech, Cary, NC, USA) plate reader. cAMP levels were calculated according to the manufacturer’s instructions against a standard curve. […]

B1: SQ10: rabbit RLN expressed from SQ10 cDNA in HEK293T cells, used as conditioned medium (protein)
chain: RVTYEWMMENVKICRNDFVRTAIEVCGHVHLERESPSPENPFLSSGPAAETVPSSIKKDAENANTMLESIPNLPQELTATLFEKQPSKLYLQYLPTLKKSNVSFEEFKKIIQNIQRGVQGSSASESNTFSRKKRQFSESLPEECCKYGCPRYYLLMYC
B1 was tested, and the “cAMP response to SQ10 conditioned medium” value [1] was “responded to SQ10 treatment with cAMP production; also recorded: activated human and guinea pig receptors and thus was fully functional”, the “cAMP response to SQ10 conditioned medium” value ([2]; R1- or R2-RXFP1, conditioned media from SQ10-transfected HEK293T cells, % of 10 μM Forskolin) was “No response was recorded; also recorded: Neither of the two rabbit RXFP1 variants responded” and the “statistical significance of response versus hRXFP1 or G-RXFP1” value ([2]; R1-RXFP1, SQ10 conditioned media) was “statistically significant (p < 0.0001) compared to hRXFP1 or G-RXFP1”. For the same molecule, the “cAMP response to SQ10 conditioned medium” value [3] was “responded to SQ10 treatment with cAMP production; also recorded: activated human and guinea pig receptors and thus was fully functional”.
